According to US20150344570A1 (published 2015):

T1: FcγRIIa H (FcgRIIa type H, His at position 131), extracellular domain with C-terminal His tag (human, UniProt P12318 34-217)
T1 construct: extracellular domain; also called 2aH; FcgRIIa H; not shown: His tag at the C terminus
T1 sequence (looked up): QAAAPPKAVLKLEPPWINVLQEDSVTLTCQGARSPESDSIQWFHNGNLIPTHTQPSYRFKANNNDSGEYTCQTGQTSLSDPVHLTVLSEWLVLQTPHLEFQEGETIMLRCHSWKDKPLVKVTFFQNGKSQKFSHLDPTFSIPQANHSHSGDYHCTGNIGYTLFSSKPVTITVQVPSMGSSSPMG

T2: FcγRIIb, extracellular domain with C-terminal His tag (human, UniProt P31994 43-217)
T2 construct: extracellular domain; also called 2b; FcgRIIb; not shown: His tag at the C terminus
T2 sequence (looked up): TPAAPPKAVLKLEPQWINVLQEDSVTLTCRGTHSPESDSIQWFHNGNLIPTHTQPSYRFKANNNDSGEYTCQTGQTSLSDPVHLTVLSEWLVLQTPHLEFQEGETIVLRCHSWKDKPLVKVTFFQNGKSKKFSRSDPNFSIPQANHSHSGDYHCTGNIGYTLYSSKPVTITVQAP

T3: FcγRIIa H (human, UniProt P12318 34-217)
T3 construct: extracellular domain; also called FcγRIIa type H; 2aH; not shown: His tag at the C terminus
T3 sequence (looked up): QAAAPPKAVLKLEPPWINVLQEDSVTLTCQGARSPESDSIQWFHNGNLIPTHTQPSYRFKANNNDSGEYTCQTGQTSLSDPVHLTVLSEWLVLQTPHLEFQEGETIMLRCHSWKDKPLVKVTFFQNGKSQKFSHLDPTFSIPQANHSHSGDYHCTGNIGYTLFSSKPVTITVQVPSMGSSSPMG

T4: FcγRIIb (human, UniProt P31994 43-217)
T4 construct: extracellular domain; also called 2b; not shown: His tag at the C terminus
T4 sequence (looked up): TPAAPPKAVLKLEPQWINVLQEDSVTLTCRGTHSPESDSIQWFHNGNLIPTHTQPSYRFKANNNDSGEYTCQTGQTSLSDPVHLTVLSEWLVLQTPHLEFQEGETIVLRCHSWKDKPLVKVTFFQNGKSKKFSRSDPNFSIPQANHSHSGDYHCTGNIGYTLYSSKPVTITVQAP


Legend:
[1] = biological target: T1, FcγRIIa H (FcgRIIa type H, His at …); experiment: SPR (Biacore), relative binding, GpH7-A5/GpH7-B3/GpL16-k0 = 100
[2] = biological target: T2, FcγRIIb, extracellular domain with …; experiment: as above
FcγRIIa H = biological target: T3, FcγRIIa H; experiment: SPR (Biacore), antibody captured, FcγR as analyte; binding relative to GpH7-A5/GpH7-B3/GpL16-k0 = 100
Procedure: (§1) The heterodimerized antibodies He Abs in which one of the H chains was introduced with an alteration were assayed for their binding activities to each activating FcγR and inhibitory FcγR according to the method described in Example 4. […] The activating FcγRs in FIGS. 26, 27, 28, and 29 are FcγRIa, FcγRIIa (R), FcγRIIa (H), and FcγRIIIa, respectively.
(§2) Analysis of interaction between objective antibody and the FcγR was carried out using Biacore T100 (GE Healthcare). HBS-EP+ (GE Healthcare) was used as the running buffer, and the measurement temperature was set to 25° C. Chips produced by immobilizing the antigen peptide by the amine coupling method to a Series S Sencor Chip CM5 (GE Healthcare), or alternatively, chips produced by allowing preliminarily biotinylated antigen peptides to interact with and immobilize onto a Series S Sensor Chip SA (certified) (GE Healthcare) were used. Antibodies of interest were captured onto an antigen peptide-immobilized chip, and allowed to interact to each FcγR diluted with running buffer. To regenerate and repeatedly use the chip, the antibodies captured on the chip were washed off by reacting 10 mM glycine-HCl, pH 1.5.

FcγRIIb = biological target: T4, FcγRIIb; experiment: as above
Procedure: as §1, §2

| Binder | He/Con_2aH [1] | He/Con_2b [2] | He/Con_2aH (FcγRIIa H) | He/Con_2b (FcγRIIb) |
| --- | --- | --- | --- | --- |
| GpH7-A5/GpH7-B3 variant P331_03V/GpL16-k0 (antibody, human IgG1, kappa, He Ab; alteration in one H chain only; also called He Ab) heavy 1: not shown heavy 2: not shown light: DIVMTQSPLSLPVTPGEPASISCQASESLVHSNRNTYLHWYLQKPGQSPQLLIYKVSNRFSGVPDRFSGSGSGTDFTLKISRVEAEDVGVYYCSQNTHVPPTFGQGTKVEIERTVAAPSVFIFPPSDEQLKSGTASVVCLLNNFYPREAKVQWKVDNALQSGNSQESVTEQDSKDSTYSLSSTLTLSKADYEKHKVYACEVTHQGLSSPVTKSFNRGEC | 82.5 % of control | 119 % of control |  |  |
| GpH7-A5/GpH7-B3 variant P331_06M/GpL16-k0 (antibody, human IgG1, kappa, He Ab; alteration in one H chain only; also called He Ab) heavy 1: not shown heavy 2: not shown light: DIVMTQSPLSLPVTPGEPASISCQASESLVHSNRNTYLHWYLQKPGQSPQLLIYKVSNRFSGVPDRFSGSGSGTDFTLKISRVEAEDVGVYYCSQNTHVPPTFGQGTKVEIERTVAAPSVFIFPPSDEQLKSGTASVVCLLNNFYPREAKVQWKVDNALQSGNSQESVTEQDSKDSTYSLSSTLTLSKADYEKHKVYACEVTHQGLSSPVTKSFNRGEC | 85.1 % of control | 102 % of control |  |  |
| GpH7-A5/GpH7-B3 variant A330_16H/GpL16-k0 (antibody, human IgG1, kappa, Heterodimerized IgG1; mutation in the GpH7-B3 chain only; also called He Ab) heavy 1: not shown heavy 2: not shown light: DIVMTQSPLSLPVTPGEPASISCQASESLVHSNRNTYLHWYLQKPGQSPQLLIYKVSNRFSGVPDRFSGSGSGTDFTLKISRVEAEDVGVYYCSQNTHVPPTFGQGTKVEIERTVAAPSVFIFPPSDEQLKSGTASVVCLLNNFYPREAKVQWKVDNALQSGNSQESVTEQDSKDSTYSLSSTLTLSKADYEKHKVYACEVTHQGLSSPVTKSFNRGEC |  |  | 101 % of control | 87.6 % of control |
| GpH7-A5/GpH7-B3 variant A330_19Q/GpL16-k0 (antibody, human IgG1, kappa, Heterodimerized IgG1; mutation in the GpH7-B3 chain only; also called He Ab) heavy 1: not shown heavy 2: not shown light: DIVMTQSPLSLPVTPGEPASISCQASESLVHSNRNTYLHWYLQKPGQSPQLLIYKVSNRFSGVPDRFSGSGSGTDFTLKISRVEAEDVGVYYCSQNTHVPPTFGQGTKVEIERTVAAPSVFIFPPSDEQLKSGTASVVCLLNNFYPREAKVQWKVDNALQSGNSQESVTEQDSKDSTYSLSSTLTLSKADYEKHKVYACEVTHQGLSSPVTKSFNRGEC |  |  | 102 % of control | 90.8 % of control |
| GpH7-A5/GpH7-B3 variant P331_04F/GpL16-k0 (antibody, human IgG1, kappa, He Ab; alteration in one H chain only; also called He Ab) heavy 1: not shown heavy 2: not shown light: DIVMTQSPLSLPVTPGEPASISCQASESLVHSNRNTYLHWYLQKPGQSPQLLIYKVSNRFSGVPDRFSGSGSGTDFTLKISRVEAEDVGVYYCSQNTHVPPTFGQGTKVEIERTVAAPSVFIFPPSDEQLKSGTASVVCLLNNFYPREAKVQWKVDNALQSGNSQESVTEQDSKDSTYSLSSTLTLSKADYEKHKVYACEVTHQGLSSPVTKSFNRGEC | 84.7 % of control | 110 % of control |  |  |
| GpH7-A5/GpH7-B3 variant P331_15Y/GpL16-k0 (antibody, human IgG1, kappa, He Ab; alteration in one H chain only; also called He Ab) heavy 1: not shown heavy 2: not shown light: DIVMTQSPLSLPVTPGEPASISCQASESLVHSNRNTYLHWYLQKPGQSPQLLIYKVSNRFSGVPDRFSGSGSGTDFTLKISRVEAEDVGVYYCSQNTHVPPTFGQGTKVEIERTVAAPSVFIFPPSDEQLKSGTASVVCLLNNFYPREAKVQWKVDNALQSGNSQESVTEQDSKDSTYSLSSTLTLSKADYEKHKVYACEVTHQGLSSPVTKSFNRGEC | 86 % of control | 114 % of control |  |  |
| GpH7-A5/GpH7-B3 variant P331_20W/GpL16-k0 (antibody, human IgG1, kappa, He Ab; alteration in one H chain only; also called He Ab) heavy 1: not shown heavy 2: not shown light: DIVMTQSPLSLPVTPGEPASISCQASESLVHSNRNTYLHWYLQKPGQSPQLLIYKVSNRFSGVPDRFSGSGSGTDFTLKISRVEAEDVGVYYCSQNTHVPPTFGQGTKVEIERTVAAPSVFIFPPSDEQLKSGTASVVCLLNNFYPREAKVQWKVDNALQSGNSQESVTEQDSKDSTYSLSSTLTLSKADYEKHKVYACEVTHQGLSSPVTKSFNRGEC | 82.8 % of control | 111 % of control |  |  |
| GpH7-A5/GpH7-B3 variant P331_07I/GpL16-k0 (antibody, human IgG1, kappa, He Ab; alteration in one H chain only; also called He Ab) heavy 1: not shown heavy 2: not shown light: DIVMTQSPLSLPVTPGEPASISCQASESLVHSNRNTYLHWYLQKPGQSPQLLIYKVSNRFSGVPDRFSGSGSGTDFTLKISRVEAEDVGVYYCSQNTHVPPTFGQGTKVEIERTVAAPSVFIFPPSDEQLKSGTASVVCLLNNFYPREAKVQWKVDNALQSGNSQESVTEQDSKDSTYSLSSTLTLSKADYEKHKVYACEVTHQGLSSPVTKSFNRGEC | 77.4 % of control | 114 % of control |  |  |
| GpH7-A5/GpH7-B3 variant S337_15Y/GpL16-k0 (antibody, human IgG1, kappa, He Ab; alteration in one H chain only; also called He Ab) heavy 1: not shown heavy 2: not shown light: DIVMTQSPLSLPVTPGEPASISCQASESLVHSNRNTYLHWYLQKPGQSPQLLIYKVSNRFSGVPDRFSGSGSGTDFTLKISRVEAEDVGVYYCSQNTHVPPTFGQGTKVEIERTVAAPSVFIFPPSDEQLKSGTASVVCLLNNFYPREAKVQWKVDNALQSGNSQESVTEQDSKDSTYSLSSTLTLSKADYEKHKVYACEVTHQGLSSPVTKSFNRGEC | 99.4 % of control | 100 % of control |  |  |
